Earlier results, collected in publication PMC5596636 (ACS chemical neuroscience, 2016).

Experiments:
Conditions in all cases: cloned mouse receptors; cited from earlier work
mMC3R = mMC3R (Mus musculus, UniProt P33033)
mMC4R = mMC4R (Mus musculus, UniProt P56450)
mMC5R = mMC5R (Mus musculus, UniProt P41149)
mMC1R = mMC1R (Mus musculus, UniProt Q01727)
mMC1R, sequence (Q01727 whole entry): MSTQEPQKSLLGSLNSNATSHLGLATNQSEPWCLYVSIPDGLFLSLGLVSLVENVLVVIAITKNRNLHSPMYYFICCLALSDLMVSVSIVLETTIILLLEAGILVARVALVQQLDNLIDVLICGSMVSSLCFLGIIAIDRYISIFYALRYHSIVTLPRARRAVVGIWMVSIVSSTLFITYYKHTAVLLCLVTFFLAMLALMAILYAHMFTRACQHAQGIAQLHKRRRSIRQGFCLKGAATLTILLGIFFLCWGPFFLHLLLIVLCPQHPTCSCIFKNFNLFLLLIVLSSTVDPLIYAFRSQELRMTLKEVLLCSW

mMC5R, sequence (P41149 whole entry): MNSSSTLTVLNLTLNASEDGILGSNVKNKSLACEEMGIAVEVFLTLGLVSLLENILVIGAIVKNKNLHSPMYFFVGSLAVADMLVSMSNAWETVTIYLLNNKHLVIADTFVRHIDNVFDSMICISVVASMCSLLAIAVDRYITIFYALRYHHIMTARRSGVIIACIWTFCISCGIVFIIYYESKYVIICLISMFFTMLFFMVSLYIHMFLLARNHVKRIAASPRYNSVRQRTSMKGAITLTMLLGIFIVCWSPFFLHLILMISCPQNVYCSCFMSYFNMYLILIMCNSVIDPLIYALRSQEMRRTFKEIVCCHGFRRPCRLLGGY
mMC3R, sequence (P33033 whole entry): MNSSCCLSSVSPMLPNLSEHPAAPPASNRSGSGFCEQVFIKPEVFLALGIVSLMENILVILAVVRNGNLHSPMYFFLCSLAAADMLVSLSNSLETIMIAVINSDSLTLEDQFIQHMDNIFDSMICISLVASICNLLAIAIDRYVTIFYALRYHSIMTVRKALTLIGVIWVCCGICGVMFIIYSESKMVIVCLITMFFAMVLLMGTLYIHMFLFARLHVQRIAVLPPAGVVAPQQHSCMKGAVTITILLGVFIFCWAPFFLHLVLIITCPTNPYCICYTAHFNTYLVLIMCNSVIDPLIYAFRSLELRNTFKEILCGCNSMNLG
mMC4R, sequence (P56450 whole entry): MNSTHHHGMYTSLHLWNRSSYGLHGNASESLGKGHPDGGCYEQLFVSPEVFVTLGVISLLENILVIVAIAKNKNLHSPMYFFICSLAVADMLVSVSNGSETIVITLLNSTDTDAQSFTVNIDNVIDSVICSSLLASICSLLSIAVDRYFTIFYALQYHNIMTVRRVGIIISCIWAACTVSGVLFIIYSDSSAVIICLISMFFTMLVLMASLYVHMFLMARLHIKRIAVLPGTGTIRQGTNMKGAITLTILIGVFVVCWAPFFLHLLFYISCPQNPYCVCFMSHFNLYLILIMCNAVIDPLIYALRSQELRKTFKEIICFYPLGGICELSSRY

Substance: Ac-His-Phe-Arg-Trp-NH2
- agonist potency at the mMC3R (mMC3R): micromolar potency
- agonist potency at the mMC4R (mMC4R): micromolar potency
- agonist potency at the mMC5R (mMC5R): sub-micromolar potency
- agonist potency at the mMC1R (mMC1R): micromolar potency
